Patent US12076390 (Dana-Farber, dated 2024)

Molecular target: HA of A/Vietnam/1203/04 on pseudotyped virus (H5-VN04 pseudovirus) (influenza A virus A/Vietnam/1203/04 …)
Assay: cell-based or functional assay

B1: 3I14 VLD94N IgG1 (antibody, V domains shown)
VH: QVQLLESGGGVVQPGRSLRLSCAASGFTFSNYGMHWVRQAPGKGLEWVAIISFDGSKKYYANSVKGRSTISRDNSKNTLSLQMNSLGPEDTALYYCAKLPSPYYFDSRFVWVAASAFHFWGQGILVTVSS
VL: NFMLTQPPSASGTPGQRVTISCSGSSSNIGGNTVHWFQQLPGTAPKLLIYTNSLRPSGVPDRFSGSKSGTSASLAISGLQSEDEADYYCAAWDNSLNGQVFGGGTKLTVL
- IC50, neutralization of H5-VN04 pseudovirus: 8.65 ng/mL
